Target: the molecule itself
Assay: crystal structure; purified GF combined with 1.2 M excess of purified, deglycosylated receptor GBD; buffer exchanged to 10 mM Tris-HCl, 40 mM NaCl, pH 8.0; BMPR2-activin B crystals in 14% PEG 3K, 175 mM (NH4)2SO4, 100 mM BisTris pH 5.4; ACVR2A-activin A crystals in 17% PEG 3K, 100 NaCitrate pH 5.8

Row | Protein | binding result
1 | activin A (ligand, human (by the printed accession), UniProt P08476 311-426, looked up, activin A (inhibin beta A chain), full mature moiety, residues 311 to 426; disulfide linked dimer; it was removed with the prodomain; also called ActA; INHBA) GLECDGKVNICCKKQFFVSFKDIGWNDWIIAPSGYHANYCEGECPSHIAGTSGSSLSFHSTVINHYRMRGHSPFANLKSCCVPTKLRPMSMLYYDDGQNIIKKDIQNMIVEECGCS | binds
2 | activin B (ligand, human (by the printed accession), UniProt P09529 293-407, looked up, activin B (inhibin beta B chain), full mature moiety, residues 293 to 407; disulfide linked dimer; also called ActB; INHBB) GLECDGRTNLCCRQQFFIDFRLIGWNDWIIAPTGYYGNYCEGSCPAYLAGVPGSASSFHTAVVNQYRMRGLNPGTVNSCCIPTKLSTMSMLYFDDEYNIVKRDVPNMIVEECGCA | binds

Reference: article PMC9234707, “Type II BMP and activin receptors BMPR2 and ACVR2A share a conserved mode of growth factor recognition” (The Journal of Biological Chemistry, 2022)
